± gives the uncertainty stated by the source.
Test: self-splicing fitness, log relative to wild type (ln ratio); higher = more splicing; Tetrahymena group I intron in knt gene, E. coli kanamycin selection, DiMSum; sequences stand for … in CUCUCU…GGAGGGAAAAGUUAUCAGGCAUGCACCUGGUAGCUAGUCUUUAAACCAAUAGAUUGCAUCGGUUUAAAAGGCAAGACCGUCAAAUUGCGGGAAAGGGGUCAACAGCCGUUCAGUACCAAGUCUCAGGGGAAACUUUGAGAUGGCCUUGCAAAGGGUAUGGUAAUAAGCUGACGGACAUGGUCCUAACCACGCAGCCAAGUCCUAAGUCAACAGAUCUUCUGUUGAUAUGGAUGCAGUUCACAGACUAAAUGUCGGUCGGGGAAGAUGUAUUCUUCUCAUAAGAUAUAGUCGGACCUCUCCUUAAUGGGAGCUAGCGGAUGAAGUGAUGCAACACUGGAGCCGCUGGGAACUAAUUUGUAUGCGAAAGUAUAUUGAUUAGUUUUGGAGUACUCGUGGUCG
How it was run: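 Colonies from six replicate transformations of E. coli BL21(DE3) were pooled and amplicon-sequenced on an Illumina HiSeq 2500. The library placed an intron with all eight P1ex-region nucleotides randomised inside the knt kanamycin-resistance gene on pET-22b(+), and cells grew overnight at 37°C or 30°C on LB agar with or without 25 μg/mL kanamycin (plus 100 μg/mL carbenicillin, 50 μM IPTG, 0.2% rhamnose). Fitness is the DiMSum error-weighted combination of wild-type-normalised replicate fold changes, kanamycin versus none.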

| Sequence | self-splicing fitness (ln) (30 °C) | self-splicing fitness (ln) (37 °C) |
| --- | --- | --- |
| GAUAAGCAAUAUUACGGCCA | -1.15 ± 0.18 | 0.818 ± 0.17 |
| GAUAAGCAAUAUUACGGGAC | -2.82 ± 0.13 | -1.18 ± 0.1 |
| GAUAAGCAAUAUUACGGGAU | -2.39 ± 0.18 | -1.89 ± 0.19 |
| GAUAAGCAAUAUUACGUAAU | -1.78 ± 0.073 | -0.923 ± 0.1 |
| GAUAAGCAAUAUUACGUAGU | -2.09 ± 0.083 | -0.957 ± 0.091 |
| GAUAAGCAAUAUUACGUAUA | -1.81 ± 0.12 | -1.01 ± 0.11 |
| GAUAAGCAAUAUUACGUAUU | -4.03 ± 0.37 | -1.78 ± 0.21 |
| GAUAAGCAAUAUUACGUCAA | -1.66 ± 0.16 | -1.39 ± 0.14 |
| GAUAAGCAAUAUUACGUGAA | -2.2 ± 0.13 | -1.63 ± 0.15 |
| GAUAAGCAAUAUUACGUGCG | -0.71 ± 0.083 | -0.166 ± 0.13 |
| GAUAAGCAAUAUUACGUUCC | -3.71 ± 0.28 | -2.94 ± 0.24 |
| GAUCAGCAAUAUUACGAAGC | -1.74 ± 0.078 | -0.845 ± 0.086 |
| GAUCAGCAAUAUUACGAAUU | -1.21 ± 0.065 | -0.655 ± 0.083 |
| GAUCAGCAAUAUUACGACGG | -2.63 ± 0.28 | -0.19 ± 0.25 |
| GAUCAGCAAUAUUACGACGU | 0.142 ± 0.076 | 0.682 ± 0.089 |
| GAUCAGCAAUAUUACGAGUU | -1.26 ± 0.094 | -0.882 ± 0.12 |
| GAUCAGCAAUAUUACGAUAC | -1.08 ± 0.078 | -0.733 ± 0.12 |
| GAUCAGCAAUAUUACGCAAA | -0.978 ± 0.17 | -0.367 ± 0.16 |
| GAUCAGCAAUAUUACGCAGG | -3.3 ± 0.29 | -1.09 ± 0.12 |
| GAUCAGCAAUAUUACGCGGC | -3.7 ± 0.37 | -2.89 ± 0.4 |
| GAUCAGCAAUAUUACGCGUA | -0.39 ± 0.095 | -0.283 ± 0.14 |
| GAUCAGCAAUAUUACGGAUG | -1.19 ± 0.068 | -0.813 ± 0.076 |
| GAUCAGCAAUAUUACGGCAG | -3.4 ± 0.33 | -2.34 ± 0.27 |
| GAUCAGCAAUAUUACGGCCU | -1.13 ± 0.22 | -1.18 ± 0.23 |

| Sequence | self-splicing fitness (ln) (30 °C) | self-splicing fitness (ln) (37 °C) |
| --- | --- | --- |
| GAUCAGCAAUAUUACGGCUA | -0.263 ± 0.099 | 0.0701 ± 0.11 |
| GAUCAGCAAUAUUACGGCUG | -3.29 ± 0.19 | -1.12 ± 0.16 |
| GAUCAGCAAUAUUACGGUAC | -0.39 ± 0.11 | -0.884 ± 0.12 |
| GAUCAGCAAUAUUACGGUCG | -1.42 ± 0.092 | -0.484 ± 0.088 |
| GAUCAGCAAUAUUACGUAUA | -0.819 ± 0.091 | -0.975 ± 0.088 |
| GAUCAGCAAUAUUACGUAUU | -2.69 ± 0.12 | -1.38 ± 0.12 |
| GAUCAGCAAUAUUACGUCUU | 0.24 ± 0.076 | 0.0656 ± 0.085 |
| GAUCAGCAAUAUUACGUGGG | -3.21 ± 0.13 | -1.7 ± 0.11 |
| GAUCAGCAAUAUUACGUUUG | -1.53 ± 0.058 | 0.151 ± 0.08 |
| GAUGAGCAAUAUUACGACAA | -2.95 ± 0.31 | – |
| GAUGAGCAAUAUUACGACGC | -0.267 ± 0.15 | 0.408 ± 0.23 |
| GAUGAGCAAUAUUACGAGGA | -2.63 ± 0.17 | -2.89 ± 0.15 |
| GAUGAGCAAUAUUACGAUGG | -1.57 ± 0.13 | -2 ± 0.25 |
| GAUGAGCAAUAUUACGCACG | -3.63 ± 0.32 | -2.25 ± 0.3 |
| GAUGAGCAAUAUUACGCAUU | – | -1.96 ± 0.39 |
| GAUGAGCAAUAUUACGCGCC | -3.17 ± 0.3 | -2.26 ± 0.2 |
| GAUGAGCAAUAUUACGGACG | – | -1.49 ± 0.26 |
| GAUGAGCAAUAUUACGGCAG | – | -2.52 ± 0.41 |
| GAUGAGCAAUAUUACGGCGA | -2.19 ± 0.17 | -1.38 ± 0.13 |
| GAUGAGCAAUAUUACGGGAA | -3.01 ± 0.23 | -3.7 ± 0.42 |
| GAUGAGCAAUAUUACGUAUA | – | -1.82 ± 0.35 |
| GAUGAGCAAUAUUACGUGAG | -2.88 ± 0.23 | -2.06 ± 0.28 |
| GAUUAGCAAUAUUACGAAAG | -2.38 ± 0.25 | -0.574 ± 0.23 |
| GAUUAGCAAUAUUACGAAGA | -1.25 ± 0.43 | -0.415 ± 0.38 |

| Sequence | self-splicing fitness (ln) (30 °C) | self-splicing fitness (ln) (37 °C) |
| --- | --- | --- |
| GAUUAGCAAUAUUACGAAGG | -3.53 ± 0.43 | -1.8 ± 0.35 |
| GAUUAGCAAUAUUACGAUUC | -2.58 ± 0.22 | -1.45 ± 0.2 |
| GAUUAGCAAUAUUACGCGCG | -1.03 ± 0.097 | -0.745 ± 0.12 |
| GAUUAGCAAUAUUACGCGGA | -3.19 ± 0.26 | -1.55 ± 0.15 |
| GAUUAGCAAUAUUACGGAAU | -2.71 ± 0.15 | -2.11 ± 0.17 |
| GAUUAGCAAUAUUACGGAUC | -2.71 ± 0.4 | -2.18 ± 0.32 |
| GAUUAGCAAUAUUACGGGGU | -3.45 ± 0.18 | -2.11 ± 0.13 |
| GAUUAGCAAUAUUACGGUAG | -2.5 ± 0.15 | -1.21 ± 0.12 |
| GAUUAGCAAUAUUACGGUAU | -1.75 ± 0.12 | -1.14 ± 0.14 |
| GAUUAGCAAUAUUACGGUUU | -0.946 ± 0.083 | 0.231 ± 0.11 |
| GAUUAGCAAUAUUACGUAUG | -1.75 ± 0.065 | -1.33 ± 0.087 |
| GAUUAGCAAUAUUACGUCAA | -2.6 ± 0.41 | -0.886 ± 0.22 |
| GAUUAGCAAUAUUACGUGCA | -1.7 ± 0.14 | -0.0754 ± 0.09 |
| GAUUAGCAAUAUUACGUUAC | -2.63 ± 0.19 | -2.53 ± 0.23 |
| GAUUAGCAAUAUUACGUUCC | -2.41 ± 0.3 | -1.59 ± 0.19 |
| GCAAAGCAAUAUUACGAAGU | -3.24 ± 0.16 | -1.22 ± 0.11 |
| GCAAAGCAAUAUUACGACUC | -0.773 ± 0.13 | 0.0939 ± 0.11 |
| GCAAAGCAAUAUUACGACUU | -0.0792 ± 0.067 | -0.0895 ± 0.087 |
| GCAAAGCAAUAUUACGAGAA | -3 ± 0.2 | -1.66 ± 0.18 |
| GCAAAGCAAUAUUACGAGUG | -2.57 ± 0.097 | -0.371 ± 0.092 |
| GCAAAGCAAUAUUACGAUCC | -0.0105 ± 0.12 | -0.518 ± 0.13 |
| GCAAAGCAAUAUUACGCAAU | -3.41 ± 0.13 | -1 ± 0.092 |
| GCAAAGCAAUAUUACGCAGU | -3.23 ± 0.28 | -2.42 ± 0.23 |
| GCAAAGCAAUAUUACGCCAU | -2.9 ± 0.17 | -1.6 ± 0.22 |

| Sequence | self-splicing fitness (ln) (30 °C) | self-splicing fitness (ln) (37 °C) |
| --- | --- | --- |
| GCAAAGCAAUAUUACGCCCU | -0.279 ± 0.2 | 0.0848 ± 0.16 |
| GCAAAGCAAUAUUACGCGCC | -2.2 ± 0.26 | -2.09 ± 0.36 |
| GCAAAGCAAUAUUACGCUGG | -2.41 ± 0.13 | -0.395 ± 0.14 |
| GCAAAGCAAUAUUACGGAGU | -3.58 ± 0.17 | -2.42 ± 0.21 |
| GCAAAGCAAUAUUACGGGUU | -2.11 ± 0.12 | -1.67 ± 0.16 |
| GCAAAGCAAUAUUACGGUUA | -0.938 ± 0.08 | -0.429 ± 0.076 |
| GCAAAGCAAUAUUACGUAGC | -4.47 ± 0.46 | -1.71 ± 0.22 |
| GCAAAGCAAUAUUACGUCAA | -3.16 ± 0.19 | -2.02 ± 0.14 |
| GCAAAGCAAUAUUACGUCGG | -3.15 ± 0.19 | -1.22 ± 0.13 |
| GCAAAGCAAUAUUACGUGCU | -3.46 ± 0.12 | -2.73 ± 0.17 |
| GCAAAGCAAUAUUACGUUAU | -1.73 ± 0.084 | -1.54 ± 0.092 |
| GCACAGCAAUAUUACGACAC | -0.345 ± 0.078 | 0.29 ± 0.093 |
| GCACAGCAAUAUUACGAGAA | -2.66 ± 0.25 | -0.185 ± 0.12 |
| GCACAGCAAUAUUACGAGGA | -2.11 ± 0.096 | -1.23 ± 0.099 |
| GCACAGCAAUAUUACGAUAC | -1.21 ± 0.074 | -0.488 ± 0.084 |
| GCACAGCAAUAUUACGAUAG | -1.91 ± 0.087 | -1.14 ± 0.1 |
| GCACAGCAAUAUUACGAUGA | -0.231 ± 0.076 | -0.14 ± 0.078 |
| GCACAGCAAUAUUACGAUGG | -0.945 ± 0.072 | -1.06 ± 0.081 |
| GCACAGCAAUAUUACGAUUG | -2.27 ± 0.077 | -0.657 ± 0.083 |
| GCACAGCAAUAUUACGCAAA | -1.72 ± 0.15 | -0.898 ± 0.16 |
| GCACAGCAAUAUUACGCAGU | -1.65 ± 0.12 | -1.32 ± 0.13 |
| GCACAGCAAUAUUACGCCCU | -0.527 ± 0.094 | 0.00502 ± 0.11 |
| GCACAGCAAUAUUACGCUUU | -0.861 ± 0.055 | -0.0512 ± 0.068 |
| GCACAGCAAUAUUACGGAUG | -2.18 ± 0.075 | -1.61 ± 0.096 |

From the supplement of paper PMC7877785
